Laboratory results from the RNAGym collection of RNA variant scans (doi:10.1073/pnas.2313332121).

B1: TPR t1 (parent)
chain: GACCAAUCUGCCCUCAGAGCUCGAGAACAUCUUCGGAUGCAGAGGAGGCAGGCUUCGGUGGCGCGAUAGCGCCAACGUCCUCAACCUCCAAUGCAUCCCACCACAUGAUGAUGCCUGAAGAGCCUUGGUUUUUUG

Variants of: B1
Assay: polymerase ribozyme fitness, log enrichment relative to wild type (log ratio); higher = more active; in vitro selection for triplet polymerase activity
How it was run: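 Streptavidin-bead capture of gel-excised extended constructs, followed by RT-PCR, closed a single triplicate in vitro selection round. That round began by annealing PCR-built, transcribed mutant libraries of each subunit of a heterodimeric triplet polymerase ribozyme with a biotinylated primer, the partner subunit and triplets, then incubating them frozen at −7 °C. After Illumina sequencing of inputs and outputs, genotypes needed ≥10 input reads and ≥1 read per output. Fitness is the base-2 logarithm of genotype enrichment over wild-type enrichment, using inverse-variance-weighted replicate averages.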

Row | Variant | polymerase ribozyme fitness (log ratio)
1 | C20G A41C C73A U78A A84C C123U U133G | -3.7
2 | C53G C97A | -5.66
3 | C80A A121C | -1.11
4 | U7A C15A C101A U112A | 0.0193
5 | G48C C70U C85U G107U | -6.63
6 | U7A C64A A95C C101A C123U | -6.03
7 | G10U A121U | 1.92
8 | C12U G113C G120U | -3.12
9 | A6C U7A C8G C13A G42C C72A C76G | -2.51
10 | G19U A26U C114A | -1.45
11 | G60A C86A | -0.942
12 | C13U C82U C85A G117A | -2.68
13 | U9G G51A | -1.96
14 | G63U A105U | -3.37
15 | G45U G60C U78G | -3.53
16 | A18U G45A | -2.78
17 | C64U A100U U130A | -1.02
18 | A43G G44U G48A U78C C124A | 0.343
19 | G63C C88A C94A | -2.47
20 | C89A C102G | -6.86
21 | A46U U131G | -1.62
22 | G42A G58A | -1.77
23 | A46U C82U G93U G110U | -3.55
24 | C12A G60A C88A C101A C102A | -4.87

Row | Variant | polymerase ribozyme fitness (log ratio)
25 | C80A G120U | -2.35
26 | C4G A41U | -2.07
27 | G52A C70U C102U | -2.87
28 | G44A C82U C101G | -2.82
29 | C20U C56U C70U A84U U130C | -2.96
30 | A2U U112G | -1.44
31 | C13A A84U G93U G117U | -6.66
32 | U14C C15U G39A G117A | -0.915
33 | U81A A90G | -0.0144
34 | G45U G57U A118U | -0.288
35 | A18U C62U A84C G120U G135U | -5.35
36 | A43U U87G C102U | -5.04
37 | C56G C62U A105U U129C | -3.68
38 | U116G G120C U129A | -2.49
39 | C70A C85A | -3.25
40 | A2U C8G G39C G61C C79U C101A | -4.35
41 | G45U A50U G58C C114G | -5.4
42 | A5G A46U C56U C73G | -2.61
43 | G71U C114U | -1.41
44 | G48A C89G A95G | -3.06
45 | C4G C15U G47C C73U A105U G107U C123G U126A | -7.47
46 | G61A A83U A90G | 0.0238
47 | C73U C89A G120U | -2.25
48 | G42A G69U C89G | -0.811

Row | Variant | polymerase ribozyme fitness (log ratio)
49 | A43C U59G U78C A111U | -5.7
50 | U92A C102G G113C | -6.86
51 | C8G C97U U109G C123U | -4.98
52 | C34U A100C | -3.69
53 | C12U A16G C28U A46C G120C | -1.6
54 | C34U U81C | -5.69
55 | C82A A103U | -6.11
56 | G69U C72U C79U | -0.113
57 | G52C C70U C76U U106A | -2.68
58 | C62U C64U C102A U126G | -4.31
59 | C11A U33G C56G A103G G122A | -6.79
60 | C15G C82G G117U U130C | -0.86
61 | A41U C53G G58A C70U G110C U131A | -6.81
62 | G17U A43U A119U | -5.06
63 | C49U G57U G110C | -4.9
64 | G52A C72G A95C | -2
65 | C22U C56U | -3.77
66 | A6U A16G G63U C89U | -3.25
67 | C12A G77A | -0.669
68 | C13U C123G | 2.04
69 | G61U A75C | -0.117
70 | U87G C102U | -0.897
71 | A46U C56U C101U | -1.33
72 | A46G G71A C80A U129C | -5.8

Row | Variant | polymerase ribozyme fitness (log ratio)
73 | G48A A75U C79G A90U A95C G120A U129G | -6.14
74 | C11U A37U C49A C123U | 0.929
75 | C34A C94A | -4.19
76 | U106C U125A | -0.83
77 | G35A G61C A111C | -5.93
78 | A46C U55A G63C | -0.439
79 | A50G C70U A111U | -4.72
80 | A50G C62U C82A A121U | 1.97
81 | C40G C56G G122A | -1.45
82 | G39A | -0.485
83 | G42U A91C G117C | -3.63
84 | A50C U55G G58C G61C U81A C124A | 0.946
85 | U7A C22G C40U G42U C62G | -6.04
86 | A2U C53G C76U U125G | -4.01
87 | U112C C124U G128U | -0.524
88 | C4A A119C G120A G127U | -0.47
89 | C15U C53U C97U | -1.96
90 | C20U C40U C70U G120C | -1.36
91 | C53G C64U | -0.328
92 | C31A A37U C88A A111G U112G U129A | -7.12
93 | C8U C53U U92G U131G | -2.8
94 | C56U A74G U81G G117U A118U | -4.51
95 | G117U A118U | -2.66
96 | G110U U116A | -3.44

Row | Variant | polymerase ribozyme fitness (log ratio)
97 | A6C C11A A18C C73U | -4.87
98 | C13G C62A C94U | -3.01
99 | A6U G57U G61A U87C C99A C124A | -5.7
100 | U9G G63A U92G C98G C115G G128A | -6.12
101 | C49G A100C C101U | -1.62
102 | C12G G128A | -1.65
103 | C8A C89A | -1.24
104 | C70G U78G A119G | -1.17
105 | G10U C53G U55A C56A G63A | -2.18
106 | A37C G45U G51U C73U C124G | -3.87
107 | C72U G113U G120U U130C | -3.5
108 | C28U A43G C72G U112G | -5.26
109 | C34U A41U G63U U109A C115A | -5.59
110 | C114U A121U | -1.32
111 | G42C G61A C124A U125A | 0.506
112 | A6U C97U | -0.46
113 | G47C A111G | -2.34
114 | G10C G35A U59C U112A | -5.77
115 | A46U C80U A103U A121U G135A | -5.5
116 | G23A G63C C76U C101U A111G | -5.22
117 | C12U C53U G71U G77A G120C | 1.19
118 | A46C C53A A95C G128C | -3.03
119 | A6G C12G A27U G113U U125A | -7.04
120 | G47A C82G | -1.3

Row | Variant | polymerase ribozyme fitness (log ratio)
121 | C12U U21A C40G C89G A121G | -1.38
122 | C8G G128C | -0.73
123 | C22U C123A | -3.4
124 | G25C U32A G42C G45A G51C A111U | -8.24
125 | C86G | -0.82
126 | A46U C49U A74U C102U | -4.53
127 | A2U C56A G63A C104A U112A | -5.33
128 | C72G C97U | -1.05
129 | G48C G60C | -1.63
130 | G45A G113U | -2.04
131 | G19A C76A C89G | -4.06
132 | C4A G63C G77C G128U | -3.69
133 | U7G C22G G47C G60U A84U | -5.01
134 | U78C C85G U106A | -2.34
135 | C11G C72G G117A | -0.843
136 | A2G C15G | -3.2
137 | C34G A68C G113U U126A U133C | -5.64
138 | G63U C101A U116C A119G G120U | -3.85
139 | C22G A26C C31G G45U G60U | -8.09
140 | A6U A37U | -0.0542
141 | A6U G48U C89A A105U | -6.02
142 | U7G G45C G135U | -0.606
143 | C3A A6C C12A A50G C56G | -3.05
144 | A37G A111C C124G | 0.322

Row | Variant | polymerase ribozyme fitness (log ratio)
145 | C88U C97A | -4.84
146 | A5U G69U G110A | -0.583
147 | A37U G47U G60A G110A | -3.74
148 | C3U C13A G61A C98U | -3.6
149 | A43U A46C C115U U116C | -2.39
150 | C20A G110U | -3.99
151 | C98U U130G | -0.947
152 | G52A C53G U59A A119U | -4.71
153 | C88U U129A | -0.777
154 | U32C G63U G69A | -4.13
155 | A6C G69U C72U | -0.0767
156 | C8G C15G C72G | -1.27
157 | U78A C79U U112A U131G | 0.67
158 | A16G C72G | -1.66
159 | G51U G60A | -2.28
160 | A26C C28G G52U C88U G120A | -5.8
161 | A18G C62U | -2.68
162 | G61C C79U | -1.46
163 | C8G G47C G60A | -1.03
164 | C12U G45U C82G C97G | -5.36
165 | C64U C89A | -1.58
166 | U9C U14G C80G | -6.05
167 | C56G C70U U96A U132A | -3.39
